In the DeepSol protein solubility set:

Assay: soluble on expression in E. coli; label from the status in PepcDB or PDB records
For “MTENKSFKESHPLDDFISDKELSNTTIQKEKLTIEQQKQVDTISKQINPLDNEGLLAFGSDLQKQMSQFSHQMLDEVQSKDVGPIGDTLSDLMSKLKSVNPNELNTDKPSMLKRIFSRAKSSINEIFSRMQSVSAQVDRITIQLQKHQTHLTRDIELLDTLYDKNKQYFDDLSLHIIAAQQKKLQLENEKLPQLQQQAQQSTNQMDIQQVSDMQQFIDRLDKRIYDLQLSRQIALQTAPQIRMIQNVNQALAEKIQSSILTSIPLWKNQMAIALTLMRQRNAVAAQRAVTDTTNDLLTANAEMLKQNAIETATENERGIVDLDTLKRTQRNIIETIEETLIIQQHGREERQLAEKELQQLEQDLKSHLVNIKGPNKQS”, the “soluble on expression in E. coli” value was “not soluble”. For “MLTPERHQMILQLVKEQKVVKLQQLVERTESSESTIRRDLAQLEKQRLLKRVHGGAAVLTGKGQEPTMVEKSSKNIQIKQQIAKYAASVIEQGDCIYLDAGSTTFEMIPFLINKDVTVVTNGLMHIEALVENNIRAYLLGGMMKSRTKALIGAMAQESMQKYRFDKCFLGANGVHEQLGFTTPDPEEALLKQMALTLANEGYFLIDESKFSEVAFAKIANVEDANIITNHLEIDLEKYKQQTNVIEADKQLEHHHHHH”, the “soluble on expression in E. coli” value was “soluble”. With “MIRRAPTTLQLSHDDVTSLIDDLNEQKLKQQLNIEKTKYFQGKNGGSLHSNTDFQDTSQNIEDNNNDNDNDIDEDDDMSSYNDKAASVAHTRVLNSLHLSTDSNTAHETSNANDNHNPFYIREE” the “soluble on expression in E. coli” value was “not soluble”. With “MSLQHACIFLELLKITYIHCMKRLLSLYLVLSGFLLHAQTVKELKTVASSFSEMAKIPAGSFLKHEYSFLNIQPTKQDTNLLFCIHPEATITKVTTSFYISTHEVTNAEYRQFIVWVTDSLIKNNITFDTVFYRYTTPSGKSTRISIVPDTMNRVLRDMFGYCNLNYYTHKEFISFPTTNISWHQAQAYIHWLNNRMLELLKKNHVPTTDWGKYRLPEALEWEYAAMIVEKNGDWFNQRNPDAYNIYGWLDYPLTTKEGLYKANFGLIRDLNHMVIKARWDDNYDALAPVKKYVPSLMGLYDLSGNVSEWTNTSISLDSLNKFYAGYYSNLLQTKYQHLFEELLKPAPDWKKFDAFKAESVRGRYDAQAQQYWFNEYVIRVKEMENYNRSILSRISDGMLVKGGSWDNPPVYMINTCSQVLSKNFTTPQTGFRVALTLEPAFEKLLGSYLTGEGHHHHHH” the “soluble on expression in E. coli” value was “not soluble”. For “MSLREYIKEGIKLAVTNIPEDVVSAIREALEREESKIAKYNLEMILKAIDISRKEGIPVCQDTGTPIFFVRTNGPINKIYDEIVKGVEIATREVPLRPNALHVLDGKVIGNVPEVHFEPGKETLISILMKGGGSENCTALFPLTPAEGLEGVKNKVIEHVQSCGGKPCPPIIVGIGIASPAEKAIILAKKALLRRISERHPNEKLAKFERELLEEINSLGIGPMGLGGRTTALDVKVEVETRHPASYIVGVVIQCWAHRRAFIKVSEGGVKIWQEGGSHHHHHH”, the “soluble on expression in E. coli” value was “soluble”. For “VEPSEENSKDCVVCQNGTVNWVLLPCRHTCLCDGCVKYFQQCPMCRQFVQESFAL”, the “soluble on expression in E. coli” value was “soluble”. For “MTLKLIGAGFGRTGTWSTFAALNRLGLPCYHMQEVIMNKANKGHLDFWRKVANSPPGSQHDWNRVFANYTATVDNPGCCVWKELLAAYPDAKVLLTLHPRGAEAWYESTIDTIYFTENVWQFKILEWLTPFGWKFGDMSRKLIWGRTLDGVMNDRAKAVARYNTYVEQVKAAVPPHKLLVYKVTEGWAPLCDFLGLEHHHHHH”, the “soluble on expression in E. coli” value was “soluble”. In the case of “SLREHLMSIEVANESGIDVSEAELVSVARFVIAKMDVNPCAELSMLLLDTAAMADLHMRWMDLPGPTDVMSFPMDELEPGGRPDAPEPGPSMLGDIVLCPEFAAEQAAAAGHSLGHELALLTIHGVLHLLGYDHAEPDEEKEMFALQDRLLEEWVADQVEAYQHDRQDEKDRRLLDKSRYFDL”, the “soluble on expression in E. coli” value is reported as “not soluble”. For “TTEENSKSEALLDIPMLEQYLELVGPKLITDGLAVFEKMMPGYVSVLESNLTAQDKKGIVEEGHKIKGAAGSVGLRHLQQLGQQIQSPDLPAWEDNVGEWIEEMKEEWRHDVEVLKAWVAKATKK”, the “soluble on expression in E. coli” value was “soluble”. In the case of “SSSSSDGGLFRSRPAHSLPPGEDGRVEPYVDFAEFYRLWSVDHGEQSVMTAP”, the “soluble on expression in E. coli” value is reported as “soluble”. With “MGSDKIHHHHHHMQNPFTLTFGRSPLESVDRPVQINEIIENFTADTINQQMFIITGVRGSGKTVMMTEISHRLRENDDWVVIELNPATELLPAMLSKLNSDNICAGLIKSAKLDLSFFGFGVSIEGTQPITDAETAIIKILERLKKSGKRLLITIDEMTNSEYMKVFAGAFQIFVRQELPVFLLGTGLYENIEELQNEKSLTFLYRAPKIQLKPLNNAAIINKYKTIFNISPEKAAQMAGLTKGYPFAFQVLGYLTWNNGGDYNGILGEYEQYLSEFVYDKIWSELSQKDRMVAKGIADVQSGKIKEIRDAIGMETNEFNPYRKRLIKKGIVSGEIRGYVYFTLPLFEEYVIENY” the “soluble on expression in E. coli” value was “not soluble”. With “IKKPMSASALFVQDHRPQFLIENPKTSLEDATLQIEELWKTLSEEEKLKYEEKATKDLERYNSQMKRAIEQESQMSLKD” the “soluble on expression in E. coli” value was “soluble”. In the case of “MGSDKIHHHHHHVKLHVIHYNDLHSHFDMWPRYMSFMKEHRTYDSLVFDLGDHADRVAPATEATQGKINTHLLNELSPTAVTIGNNEGITFPHDWLAELYSDATFPVLVSNLSAPFAKAGMIQELPTGKVGIFGLTAPYYELYELLGWSIENPFEAAAREIEALRDQVDVLICLSHLGFYQDEDLAERFPELDLIIGSHTHHVLDDGVVRNGVLIAQAGKHGQYAGEIYLNTDTGEKEAVLHPLESYPEDEATAVLLDKEQYLAERQMKQPIGRTSGLANDWFNPSPFTQLLADTMRDWCQADLACVPAGMLLGSLSPGPVSSYDLHRLCPHPINPCKVTMTGKELKQFIAEVDTNRFEQLKVRGLGFRGKLMGKMHYAGNRQHLDDAKHYTVVLPDMFTFGPLFPEIKEMPKEYFMPELLRDLLFDRLSEKSEFGELPIRKH”, the “soluble on expression in E. coli” value is reported as “not soluble”. In the case of “MKSRIVYGPILSRRLGRSLGIDVIKNTGSKKNCNYDCIYCQLGHVELKLGSPEDVKEAVTPKEVSESFEKFYKDVEGLDYITFSGTCEPSLNLSLGEMIQSIREISGVPVCVITNSSLMGREDVRKNLSQADLVVATLVSGIEKTWRKIHRPAPCINFQEIIEGLRELAKAGDGKKLALEVMFLESETGEPLNSTDEEVDCLIKTIRYICPDEIEVLTISRPPAEKWVKPVSEERLREIADRFISEFGAEKVRLVLKGKKKKAKVLHRDLEEEVYALLLRRPCTFEQTWQGLSIDPESLRPVLEKLLAEGKIEEIGSKNSVYYRAK”, the “soluble on expression in E. coli” value is reported as “not soluble”. With “MSLRSKLFLILTLHRSGSSATAGVLYHLGVHMGQHLLKENESNPKGHFENEEFVAVNDRILHTIGGSWKKPPSPELIKQLKIPRRQVETFLLQHAKPAWGIKDPRMLLTFDLWKGPMERVADITYIIVHRPIKESIASLVRRNDMTELEAQQILLPYLGNKQRIREQLVEEGADIIDVHFSDLLQHPDELVAAVNQRLGRAPKKRLDDVRLFLDHSLKHEGHHHHHH” the “soluble on expression in E. coli” value was “soluble”. With “MSLKISHIDLGEHPILLAPMEDVTDPAFRLMCKKFGADMVYTEFVSSDALIRAVSKTAQKLSISDEERPVAIQIYGKDTETMVEAAKIVEQAQPDILDINFGCPVKRVAGKGAGAGMLQNIPKMLEITRAVVDAVKIPVTVKTRLGWDANNKIIVDLAEQLQDCGIAALTIHGRTRAQMYTGEADWTLIGEVKNNQRMHIPIIGNGDVTTPQRCKECFDRYGVDAVMIGRASFGRPWIFKEVKHYLETGEELPPLSFEWCMEVLRQEVIDSVNLLDERRGILHVRRHLAASPLFKGIPNFKETRIAMLRAETKEELFRIFETIPEKVNSLLDEGHHHHHH” the “soluble on expression in E. coli” value was “soluble”. In the case of “MKEIDWANLSFGYMKTDYNVRINFRNGAWGELEVSSDEHLNLHMAATCLHYGQEAFEGLKAFRGKDGKVRIFRLEENAARLQSTCQGILMAELPTERFKEAILKVVKLNERFIPPYETGASLYIRPLLIGTSAQVGVHPAEEYMFVVFVTPVGPYFKGGFSTNPYVIIREFDRAAPHGTGIYKVGGNYAASLRANKKAHDLGYSCEFYLDAKEKKYIDECGAANFFGIKDNTYITPKSSSILPSITNKSLMQLAEDMGIKVERRPIPEEELETFEEAGACGTAAVISPIQRIDDLENGKSYVISKDGKPGPICTKLYNKLRGIQYGDEPDTHGWVTIVE”, the “soluble on expression in E. coli” value is reported as “not soluble”.
